Data from paper PMC8976148 (2022).

T1: Biotinylated N-Avitagged-TEAD4^217-434 (UniProt Q15561 217-434, biotin (biotinylated Avitag))
T1 chain: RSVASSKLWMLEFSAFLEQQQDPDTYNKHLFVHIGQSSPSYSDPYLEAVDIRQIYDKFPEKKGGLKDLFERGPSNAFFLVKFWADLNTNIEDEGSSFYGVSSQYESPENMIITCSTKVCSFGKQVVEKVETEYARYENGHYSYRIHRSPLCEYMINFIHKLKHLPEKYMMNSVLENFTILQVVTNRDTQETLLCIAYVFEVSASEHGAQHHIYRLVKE


Biological target: T1, Biotinylated N-Avitagged-TEAD4^217-434
Assay: FRET

IC50	Binder
11 nM	YAP^50-171 (domain or fragment) AGHQIVHVRGDSETDLEALFNAVMNPKTANVPQTVPMRLRKLPDSFFKPPEPKSHSRQASTDAGTAGALTPQHVRAHSSPASLQLGAVSPGTLTPTGVVSGPAATPTAQHLRQSSFEIPDDV
7 nM	YAP^50-171 with a cysteine inserted at position 172 (domain or fragment) AGHQIVHVRGDSETDLEALFNAVMNPKTANVPQTVPMRLRKLPDSFFKPPEPKSHSRQASTDAGTAGALTPQHVRAHSSPASLQLGAVSPGTLTPTGVVSGPAATPTAQHLRQSSFEIPDDVC
